According to article PMC3763469 (Molecular cell, 2011):

Legend:
[1] = target: FlAsH-Saci_1373 (ESCRT-III wH domain, residues 194-261) (S. acidocaldarius) (UniProt Q4J924); experiment: fluorescence polarisation
[2] = target: T1, S. solfataricus ESCRT-III wH domain (His6-SSO0910, residues 210-259) (S. solfataricus, UniProt Q97ZJ6 210-259); experiment: crystal structure
T1 chain (looked up): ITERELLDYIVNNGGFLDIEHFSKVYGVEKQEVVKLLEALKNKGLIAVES

[3] = target: T2, GST fused to full length ESCRT-III (Saci_1373) (S. acidocaldarius, UniProt Q4J924 1-261); experiment: pull-down
T2 sequence (looked up): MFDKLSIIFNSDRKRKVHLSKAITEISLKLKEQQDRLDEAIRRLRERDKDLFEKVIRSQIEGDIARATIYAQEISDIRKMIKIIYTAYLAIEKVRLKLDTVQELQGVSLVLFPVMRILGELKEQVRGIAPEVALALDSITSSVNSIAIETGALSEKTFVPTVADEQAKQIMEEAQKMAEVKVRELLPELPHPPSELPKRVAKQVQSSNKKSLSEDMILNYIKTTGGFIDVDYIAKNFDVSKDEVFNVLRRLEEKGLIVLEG

[4] = target: T3, full length ESCRT-III (Saci_1373), purified recombinant (S. acidocaldarius, UniProt Q4J924 1-261); experiment: co-sedimentation
T3 sequence (looked up): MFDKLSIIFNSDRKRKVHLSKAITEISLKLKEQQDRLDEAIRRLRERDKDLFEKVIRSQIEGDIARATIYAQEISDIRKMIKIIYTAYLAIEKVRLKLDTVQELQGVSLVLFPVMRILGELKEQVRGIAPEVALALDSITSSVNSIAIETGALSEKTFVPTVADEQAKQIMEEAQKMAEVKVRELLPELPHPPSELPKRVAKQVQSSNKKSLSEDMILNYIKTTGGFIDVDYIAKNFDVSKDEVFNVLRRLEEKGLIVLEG

Q: Which Kd [1] does the source give for “GST-tagged CdvA residues 208-238 (from UniProt Q4J923 208-238) (domain or fragment)” here?
A: Its Kd is 6 µM.

Q: Does SEIPLPIPVKVINTL (peptide, UniProt Q97ZJ5 251-265, looked up) [S. solfataricus CdvA E3B peptide (SSO0911, residues 251-265)] bind [2]?
A: Result: binds

B1: CdvA (Saci_1374) residues 69-238 (domain or fragment, S. acidocaldarius, UniProt Q4J923 69-238, looked up)
chain: DWKTDSLKVLGQMEKIRKRQRALEELYSRQEIPKSTYEDMKRKLDSELLKIRDEHSRLKGRLKDRLNSIEDQVAQIDRAMIALKINYISGEIPELAYKNSMEILRLSRDSYALERDDIKKTLDKLDGLDKEVIELKPSASLNTSTEQSNKNEGNKSEVSVPIPVRVINTL
Q: Does B1 bind [3]?
A: Result: binds

Q: Does B1 bind [4]?
A: Result: binds
